Test system: HA-YY1
Test: Co-IP of Flag-EZH2 wt/mutants with HA-YY1
Assay type: binding
Settings: OPB domain of YY1 deleted
Source text: HA-tagged expression vectors of wild-type (wt) and mutant YY1 were constructed by amplifying and subcloning the corresponding fragments of the YY1 coding region into the pcDNA3 vector. To generate EZH2 mutants, different regions of its coding sequence (1–251, 252–384, 385–618, 619–751, 385–465, 465–545, 545–618, 465–492, and 465–519) were amplified and subcloned into pGEX-4T-1 and pSL4-3×Flag plasmids to construct vectors expressing recombinant GST-EZH2 and 3×Flag-EZH2 mutants, respectively. To generate vectors expressing 3×Flag-YPB, -OPB, and -Cont (with a scrambled sequence of […]) peptides, their coding sequences were individually subcloned into a lentiviral vector pSL4 using the CMV promoter to drive the expression of 3×Flag-YPB-2A1-EGFP, 3×Flag-OPB-2A1-EGFP, and 3×Flag-Cont-2A1-EGFP. […]
Immunoprecipitations were performed as described previously. […] In Western blot studies, protein concentrations of samples were determined using the Bradford protein method, and 20 μg of proteins for each sample were separated by SDS-PAGE followed by transfer to polyvinylidene difluoride (PVDF) membranes. […]
Figure 1 Identification of YY1 binding site on EZH2 protein. […] The samples were analyzed by Western blot using EZH2 and YY1 antibodies as indicated. […]

B1: HA-YY1 (ΔOPB): YY1 mutant with the OPB domain deleted (protein)
chain: MASGDTLYIATDGSEMPAEIVELHEIEVETIPVETIETTVVGEEEEEDDDDEDGGGGDHGGGGGHGHAGHHHHHHHHHHHPPMIALQPLVTDDPTQVHHHQEVILVQTREEVVGGDDSDGLRAEDGFEDQILIPVPAPAGGDDDYIEQTLVTVAAAGKSGGGGSSSSGGGRVKKGGGKKSGKKSYLSGGAGAAGGGGADPDEKKDIDHETVVEEQIIGENSPPDYSEYMTGKKLPPGGIPGIDLSDPKQLAEFARMKPRKIKEDDAPRTIACPHKGCTKMFRDNSAMRKHLHTHGPRVHVCAECGKAFVESSKLKRHQLVHTGEKPFQCTFEGCGKRFSLDFNLRTHVRIHTGDRPYVCPFDGCNKKFAQSTNLKSHILTHAKAKNNQ
modifications: left off: HA, end not stated, kept
binding of HA-YY1 (ΔOPB) to wt EZH2 in co-IP: did not show detectable binding affinity

— article PMC8156467, “Disruption of YY1-EZH2 Interaction Using Synthetic Peptides Inhibits Breast Cancer Development” (Cancers, 2021)
